Results on 2 molecules are retold here after patent US20040086947A1.

Substrate in experiment [1]: FPB antiserum (rabbit polyclonal antiserum to human fibrinopeptide B, R4097, bleed I3)
Briefly: competitive ELISA; reference synthetic FPB. (In an ELISA, binding on a coated surface is turned into a signal by an enzyme label.)

Substrate in experiment [2]: FPB antiserum (rabbit polyclonal antiserum to human fibrinopeptide B, R4097, bleed I3)
The experiment can be described thus: competitive ELISA; des-arg FPB in solution against FPB antiserum binding to FPB-coated wells.

Substrate in experiment [3]: FPB antiserum (rabbit polyclonal antiserum to human fibrinopeptide B, R4097, bleed I3)
Briefly: competitive ELISA; synthetic FPB in solution against FPB antiserum binding to FPB-coated wells.

No end group written: not given here.

B1: synthetic des-arginine fibrinopeptide B (des-arg FPB) (peptide)
peptide: QGVNDNEEGFFSA
modifications: also: N-terminal Gln or pyroglutamic acid not given here
Take B1: in experiment [1], the cross-reactivity (IC50 of FPB divided by IC50 of des-arg FPB times 100) is 75%. Also, in experiment [2], the IC50 – broadly, the concentration that gives 50% inhibition – came to 8.9 nM.

B2: synthetic human fibrinopeptide B (FPB) (peptide)
peptide: QGVNDNEEGFFSAR
modifications: also: N-terminal Gln or pyroglutamic acid not given here
As to B2, the IC50 in experiment [3] was found to be 6.7 nM.
